Data published in PMC10088672 (2023).

Key:
[1] = target: T1, SARS-CoV-2 spike RBD, Wuhan-Hu-1 (SARS-CoV-2, UniProt P0DTC2 321-536); experiment: BLI
[2] = target: T1, SARS-CoV-2 spike RBD, Wuhan-Hu-1; experiment: BLI; remark: listed apart in the source

B1: NCV2SG53 monoclonal antibody (human IgG) (antibody, V domains shown)
VH: QVQMVESGGGLVRPGGSLRLSCAASGFTFSDYYMSWIRQAPGKGLEWISYISSSGSSMNYADSVKGRFTISRDNAKNSLFLQMNSLRAEDTAVYYCAREFDLTKIIMVPPYWGQGTLVTVSS
VL: AIQLTQSPSSLSASVGDRVTITCRASQGISSYLAWYQQKPGKAPKVLIYAASTLQSGVPSRFSGSGSGTDFTLTISSLQPEDFATYYCQQLKSYPLTFGGGTKVEIT
Kd [1]: 2.6 nM
koff [2]: 0.00022 s⁻¹

B2: NCV2SG48 monoclonal antibody (human IgG) (antibody, V domains shown)
VH: EVQLVESGGGLIQPGGSLRLSCAASGFIVSRNYMNWVRQAPGKGLEWVALIYSGGSTFYADSVKGRFTISRDNSKNTLYLQMNSLRAEDTAVYYCARDLVVYGLDYWGQGTLVTVSS
VL: AIQLTQSPSSLSASVGDRVTITCRASQGISSHLAWYQQKPGKAPKLLIFAASTLQSGVPSRFSGSGSGTDFTLTISSLQPEDFATYYCQHLNSNPPITFGQGTRLEIK
Kd [1]: 2.5 nM
koff [2]: 0.00015 s⁻¹
